# Substrate: COc1ccc(-c2oc3c(CC=C(C)C)c(O[C@@H]4O[C@H](CO)[C@@H](O)[C@H](O)[C@H]4O)cc(O)c3c(=O)c2O[C@@H]2O[C@@H](C)[C@H](O)[C@@H](O)[C@H]2O)cc1
# Experiment: HPLC of icariside I formation, Michaelis-Menten nonlinear fit
# Type: biochemical, Thermotoga petrophila
# Source text: HPLC of icariside I formation, Michaelis-Menten nonlinear fit on […]
# [1] = optimal conditions of the mutant: 85°C, pH 4.6, icariin 0.1–4 mg/ml
# [2] = optimal conditions of the enzyme: 80°C, pH 5.0, disodium hydrogen phosphate-citrate buffer, icariin 0.1–4 mg/ml
# [3] = optimal conditions of the mutant: 80°C, pH 6.0, icariin 0.1–4 mg/ml
# [4] = optimal conditions of the mutant: 80°C, pH 5.0, icariin 0.1–4 mg/ml
# [5] = optimal conditions of the mutant: 85°C, pH 5.0, icariin 0.1–4 mg/ml
protein,measurement,setting,value
"TpeRha (Thermotoga petrophila RKU-1; D506A/H570A/K579A) (protein, codon-optimized synthetic gene in pET-28a, E. coli BL21(DE3), Ni-NTA purified (His tag of vector); model domains span 1-861) MIQACDLRCEYLTSPVLGLDVIPRFSWRLKGNGKKQTRYKIIVSDNFDDIERGIGNVWESEKDSSKNLNIEYEGPKLKAYKGYYWRVKLWDEKENGPWSETAYFEMGPLEDWRGKWITMPSPLSFKDPAHRHELFYAMYFRKEFLLNKEVEKARVYVSGLGVYELHLNGKRVGNNVLDPAPTDYNKVALYSTYDVTQYLTTGKNTIGVILGNGRHIRDYGYSKPKLYLQLLVFYKDGSREFICSDETWKVSHGPLKENGIYFGEVYDARDEISGWDSPGFDDRNWSEVEIVEGPSLKAQLIPVIRVCEVIKPKRLWLSSRGTFIVDFGKNISGWVKLRVNNGKRGEKIIIRYAEVLDPSMDRLDTRNLRLARATDEYILKGQGVEIYEPRFTYHGFRYVEVEDYPGTLTSDNIEAMFVHTDVEKVGDFACSSELLNKIHSCVVNSQLANLMGIPTDCPQRDERMGWLGDAQLTVEEAMYNFDMAAFYTKYLMDIKLSQKEDGSISAVAPPYWKRYPSDPAWGTAYATILWYLYFFYEDRRVLEEHYDSLKRYVEFLRKNSPNHLTKLGQAGDWCPPGDAFPKRTPLILTSTWYYYHDTLILSEIAKILGKKEDEHEYRKLAGEIKEAFNRHFLRKVEDHTGRIVCFYRGIKLSPKDRIPTTQTCNVLPLWNKMVPEECREDVFKVLERLIEVDNDTHFDTGIVGTRYILEVLSENGRKDLALKLLLKEDYPSFGYMIKNGATTLWERWEKLEGTGMNSHNHVMLGSVDTWFYKYLSGIKPVAPGWKKIRIEPYFADQIDFVSAKIKTPNGSLEVSWKKQNKEYEIQIIIPVNTVGIFAVPESFKVSAINSKQVSYPSEFELEPGAYNIVLERVREC",Km,[1],1.11 ± 0.34 µM
same,Vmax,[1],6.59 µM/min
same,kcat,[1],0.000212 s⁻¹
same,kcat/Km,[1],191 M⁻¹ s⁻¹
"TpeRha (Thermotoga petrophila RKU-1) (protein, codon-optimized synthetic gene in pET-28a, E. coli BL21(DE3), Ni-NTA purified (His tag of vector); model domains span 1-861) MIQACDLRCEYLTSPVLGLDVIPRFSWRLKGNGKKQTRYKIIVSDNFDDIERGIGNVWESEKDSSKNLNIEYEGPKLKAYKGYYWRVKLWDEKENGPWSETAYFEMGPLEDWRGKWITMPSPLSFKDPAHRHELFYAMYFRKEFLLNKEVEKARVYVSGLGVYELHLNGKRVGNNVLDPAPTDYNKVALYSTYDVTQYLTTGKNTIGVILGNGRHIRDYGYSKPKLYLQLLVFYKDGSREFICSDETWKVSHGPLKENGIYFGEVYDARDEISGWDSPGFDDRNWSEVEIVEGPSLKAQLIPVIRVCEVIKPKRLWLSSRGTFIVDFGKNISGWVKLRVNNGKRGEKIIIRYAEVLDPSMDRLDTRNLRLARATDEYILKGQGVEIYEPRFTYHGFRYVEVEDYPGTLTSDNIEAMFVHTDVEKVGDFACSSELLNKIHSCVVNSQLANLMGIPTDCPQRDERMGWLGDAQLTVEEAMYNFDMAAFYTKYLMDIKLSQKEDGSISDVAPPYWKRYPSDPAWGTAYATILWYLYFFYEDRRVLEEHYDSLKRYVEFLRKNSPNHLTKLGQHGDWCPPGDKFPKRTPLILTSTWYYYHDTLILSEIAKILGKKEDEHEYRKLAGEIKEAFNRHFLRKVEDHTGRIVCFYRGIKLSPKDRIPTTQTCNVLPLWNKMVPEECREDVFKVLERLIEVDNDTHFDTGIVGTRYILEVLSENGRKDLALKLLLKEDYPSFGYMIKNGATTLWERWEKLEGTGMNSHNHVMLGSVDTWFYKYLSGIKPVAPGWKKIRIEPYFADQIDFVSAKIKTPNGSLEVSWKKQNKEYEIQIIIPVNTVGIFAVPESFKVSAINSKQVSYPSEFELEPGAYNIVLERVREC",Km,[2],4.33 ± 3.47 µM
same,Vmax,[2],0.098 µM/min
same,kcat,[2],4e-06 s⁻¹
same,kcat/Km,[2],0.923 M⁻¹ s⁻¹
"TpeRha (Thermotoga petrophila RKU-1; H570A) (protein, codon-optimized synthetic gene in pET-28a, E. coli BL21(DE3), Ni-NTA purified (His tag of vector); model domains span 1-861) MIQACDLRCEYLTSPVLGLDVIPRFSWRLKGNGKKQTRYKIIVSDNFDDIERGIGNVWESEKDSSKNLNIEYEGPKLKAYKGYYWRVKLWDEKENGPWSETAYFEMGPLEDWRGKWITMPSPLSFKDPAHRHELFYAMYFRKEFLLNKEVEKARVYVSGLGVYELHLNGKRVGNNVLDPAPTDYNKVALYSTYDVTQYLTTGKNTIGVILGNGRHIRDYGYSKPKLYLQLLVFYKDGSREFICSDETWKVSHGPLKENGIYFGEVYDARDEISGWDSPGFDDRNWSEVEIVEGPSLKAQLIPVIRVCEVIKPKRLWLSSRGTFIVDFGKNISGWVKLRVNNGKRGEKIIIRYAEVLDPSMDRLDTRNLRLARATDEYILKGQGVEIYEPRFTYHGFRYVEVEDYPGTLTSDNIEAMFVHTDVEKVGDFACSSELLNKIHSCVVNSQLANLMGIPTDCPQRDERMGWLGDAQLTVEEAMYNFDMAAFYTKYLMDIKLSQKEDGSISDVAPPYWKRYPSDPAWGTAYATILWYLYFFYEDRRVLEEHYDSLKRYVEFLRKNSPNHLTKLGQAGDWCPPGDKFPKRTPLILTSTWYYYHDTLILSEIAKILGKKEDEHEYRKLAGEIKEAFNRHFLRKVEDHTGRIVCFYRGIKLSPKDRIPTTQTCNVLPLWNKMVPEECREDVFKVLERLIEVDNDTHFDTGIVGTRYILEVLSENGRKDLALKLLLKEDYPSFGYMIKNGATTLWERWEKLEGTGMNSHNHVMLGSVDTWFYKYLSGIKPVAPGWKKIRIEPYFADQIDFVSAKIKTPNGSLEVSWKKQNKEYEIQIIIPVNTVGIFAVPESFKVSAINSKQVSYPSEFELEPGAYNIVLERVREC",Km,[3],0.92 ± 0.08 µM
same,Vmax,[3],1.19 µM/min
same,kcat,[3],3.64e-05 s⁻¹
same,kcat/Km,[3],39.5 M⁻¹ s⁻¹
"TpeRha (Thermotoga petrophila RKU-1; K579A) (protein, codon-optimized synthetic gene in pET-28a, E. coli BL21(DE3), Ni-NTA purified (His tag of vector); model domains span 1-861) MIQACDLRCEYLTSPVLGLDVIPRFSWRLKGNGKKQTRYKIIVSDNFDDIERGIGNVWESEKDSSKNLNIEYEGPKLKAYKGYYWRVKLWDEKENGPWSETAYFEMGPLEDWRGKWITMPSPLSFKDPAHRHELFYAMYFRKEFLLNKEVEKARVYVSGLGVYELHLNGKRVGNNVLDPAPTDYNKVALYSTYDVTQYLTTGKNTIGVILGNGRHIRDYGYSKPKLYLQLLVFYKDGSREFICSDETWKVSHGPLKENGIYFGEVYDARDEISGWDSPGFDDRNWSEVEIVEGPSLKAQLIPVIRVCEVIKPKRLWLSSRGTFIVDFGKNISGWVKLRVNNGKRGEKIIIRYAEVLDPSMDRLDTRNLRLARATDEYILKGQGVEIYEPRFTYHGFRYVEVEDYPGTLTSDNIEAMFVHTDVEKVGDFACSSELLNKIHSCVVNSQLANLMGIPTDCPQRDERMGWLGDAQLTVEEAMYNFDMAAFYTKYLMDIKLSQKEDGSISDVAPPYWKRYPSDPAWGTAYATILWYLYFFYEDRRVLEEHYDSLKRYVEFLRKNSPNHLTKLGQHGDWCPPGDAFPKRTPLILTSTWYYYHDTLILSEIAKILGKKEDEHEYRKLAGEIKEAFNRHFLRKVEDHTGRIVCFYRGIKLSPKDRIPTTQTCNVLPLWNKMVPEECREDVFKVLERLIEVDNDTHFDTGIVGTRYILEVLSENGRKDLALKLLLKEDYPSFGYMIKNGATTLWERWEKLEGTGMNSHNHVMLGSVDTWFYKYLSGIKPVAPGWKKIRIEPYFADQIDFVSAKIKTPNGSLEVSWKKQNKEYEIQIIIPVNTVGIFAVPESFKVSAINSKQVSYPSEFELEPGAYNIVLERVREC",Km,[4],1.24 ± 0.09 µM
same,Vmax,[4],1.97 µM/min
same,kcat,[4],4.31e-05 s⁻¹
same,kcat/Km,[4],34.7 M⁻¹ s⁻¹
"TpeRha (Thermotoga petrophila RKU-1; D506A/H570A) (protein, codon-optimized synthetic gene in pET-28a, E. coli BL21(DE3), Ni-NTA purified (His tag of vector); model domains span 1-861) MIQACDLRCEYLTSPVLGLDVIPRFSWRLKGNGKKQTRYKIIVSDNFDDIERGIGNVWESEKDSSKNLNIEYEGPKLKAYKGYYWRVKLWDEKENGPWSETAYFEMGPLEDWRGKWITMPSPLSFKDPAHRHELFYAMYFRKEFLLNKEVEKARVYVSGLGVYELHLNGKRVGNNVLDPAPTDYNKVALYSTYDVTQYLTTGKNTIGVILGNGRHIRDYGYSKPKLYLQLLVFYKDGSREFICSDETWKVSHGPLKENGIYFGEVYDARDEISGWDSPGFDDRNWSEVEIVEGPSLKAQLIPVIRVCEVIKPKRLWLSSRGTFIVDFGKNISGWVKLRVNNGKRGEKIIIRYAEVLDPSMDRLDTRNLRLARATDEYILKGQGVEIYEPRFTYHGFRYVEVEDYPGTLTSDNIEAMFVHTDVEKVGDFACSSELLNKIHSCVVNSQLANLMGIPTDCPQRDERMGWLGDAQLTVEEAMYNFDMAAFYTKYLMDIKLSQKEDGSISAVAPPYWKRYPSDPAWGTAYATILWYLYFFYEDRRVLEEHYDSLKRYVEFLRKNSPNHLTKLGQAGDWCPPGDKFPKRTPLILTSTWYYYHDTLILSEIAKILGKKEDEHEYRKLAGEIKEAFNRHFLRKVEDHTGRIVCFYRGIKLSPKDRIPTTQTCNVLPLWNKMVPEECREDVFKVLERLIEVDNDTHFDTGIVGTRYILEVLSENGRKDLALKLLLKEDYPSFGYMIKNGATTLWERWEKLEGTGMNSHNHVMLGSVDTWFYKYLSGIKPVAPGWKKIRIEPYFADQIDFVSAKIKTPNGSLEVSWKKQNKEYEIQIIIPVNTVGIFAVPESFKVSAINSKQVSYPSEFELEPGAYNIVLERVREC",Km,[1],0.51 ± 0.13 µM
same,Vmax,[1],2.5 µM/min
same,kcat,[1],9.87e-05 s⁻¹
same,kcat/Km,[1],194 M⁻¹ s⁻¹
"TpeRha (Thermotoga petrophila RKU-1; D506A) (protein, codon-optimized synthetic gene in pET-28a, E. coli BL21(DE3), Ni-NTA purified (His tag of vector); model domains span 1-861) MIQACDLRCEYLTSPVLGLDVIPRFSWRLKGNGKKQTRYKIIVSDNFDDIERGIGNVWESEKDSSKNLNIEYEGPKLKAYKGYYWRVKLWDEKENGPWSETAYFEMGPLEDWRGKWITMPSPLSFKDPAHRHELFYAMYFRKEFLLNKEVEKARVYVSGLGVYELHLNGKRVGNNVLDPAPTDYNKVALYSTYDVTQYLTTGKNTIGVILGNGRHIRDYGYSKPKLYLQLLVFYKDGSREFICSDETWKVSHGPLKENGIYFGEVYDARDEISGWDSPGFDDRNWSEVEIVEGPSLKAQLIPVIRVCEVIKPKRLWLSSRGTFIVDFGKNISGWVKLRVNNGKRGEKIIIRYAEVLDPSMDRLDTRNLRLARATDEYILKGQGVEIYEPRFTYHGFRYVEVEDYPGTLTSDNIEAMFVHTDVEKVGDFACSSELLNKIHSCVVNSQLANLMGIPTDCPQRDERMGWLGDAQLTVEEAMYNFDMAAFYTKYLMDIKLSQKEDGSISAVAPPYWKRYPSDPAWGTAYATILWYLYFFYEDRRVLEEHYDSLKRYVEFLRKNSPNHLTKLGQHGDWCPPGDKFPKRTPLILTSTWYYYHDTLILSEIAKILGKKEDEHEYRKLAGEIKEAFNRHFLRKVEDHTGRIVCFYRGIKLSPKDRIPTTQTCNVLPLWNKMVPEECREDVFKVLERLIEVDNDTHFDTGIVGTRYILEVLSENGRKDLALKLLLKEDYPSFGYMIKNGATTLWERWEKLEGTGMNSHNHVMLGSVDTWFYKYLSGIKPVAPGWKKIRIEPYFADQIDFVSAKIKTPNGSLEVSWKKQNKEYEIQIIIPVNTVGIFAVPESFKVSAINSKQVSYPSEFELEPGAYNIVLERVREC",Km,[5],3.12 ± 0.26 µM
same,Vmax,[5],1.91 µM/min
same,kcat,[5],4.64e-05 s⁻¹
same,kcat/Km,[5],14.9 M⁻¹ s⁻¹

# Reference: PMC9253678, “Computer-Aided Design of α-L-Rhamnosidase to Increase the Synthesis Efficiency of Icariside I” (Frontiers in Bioengineering and Biotechnology, 2022)
